The values below come from patent publication US11142588B2, “Polypeptides which bind C-X-C chemokine receptor type 4 (CXCR4) and methods of treating or reducing the risk of fibrosis and cancer” (AdAlta Limited, priority 2015, dated 2021).

“Also recorded” adds a separate entry of the source.

For assay [1], the target named is T1, CCR4 (Homo sapiens, UniProt P51679).
T1 sequence (P51679 1-360): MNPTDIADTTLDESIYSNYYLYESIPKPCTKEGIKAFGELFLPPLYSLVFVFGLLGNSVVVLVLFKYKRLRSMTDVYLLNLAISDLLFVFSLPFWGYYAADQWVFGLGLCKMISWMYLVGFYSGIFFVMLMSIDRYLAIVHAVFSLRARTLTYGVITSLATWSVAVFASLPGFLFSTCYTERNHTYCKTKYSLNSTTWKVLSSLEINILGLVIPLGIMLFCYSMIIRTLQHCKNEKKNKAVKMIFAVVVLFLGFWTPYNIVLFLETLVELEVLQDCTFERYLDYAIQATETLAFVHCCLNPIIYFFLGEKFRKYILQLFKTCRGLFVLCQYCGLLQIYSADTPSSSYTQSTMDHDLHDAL
The experiment in a line: PathHunter (DiscoverX) β-arrestin assay, CCR4. It counts as cell-based. As for the experimental part: (FIG. 9) The PathHunter® β-Arrestin assay (DiscoveRx) was performed according to the manufacturer's protocol. Cells were seeded into white walled, 384-well tissue culture-treated microplates (Corning) and normalized at 5,000 cells (or 10,000 cells for CXCR4) in a total volume of […]. Cell growth was at 37° C. (5% CO2, 95% relative humidity). […] Agonists were then added at the EC80 concentration and incubation was continued at 37° C. for 90 min (or 180 min for CCR1). Assay signal was generated through a single addition of 15 μL (50% v/v) of PathHunter Detection reagent cocktail, followed by 1 h incubation at room temperature. Microplates were read following signal generation with a PerkinElmer Envision instrument for chemiluminescent signal detection of relative light units (RLU).

Assay [2] has as its target CXCR4 (Homo sapiens, UniProt P61073). The experiment in a line: β-arrestin BRET assay, antagonist mode with 100 nM SDF-1. It counts as cell-based. Also noted: expressed in transfected cells; host or cells: HEK293FT. An excerpt: (FIGS. 3A-3F and 14) BRET was used in this study to assess the real-time kinetic profiles resulting from any consequent increase in proximity, building upon the previously validated monitoring of GPCR/β-arrestin interactions utilizing BRET. BRET occurs between a complementary Renilla luciferase (Rluc) variant as donor and green fluorescent protein variant as acceptor. Upon Rluc-catalyzed oxidation of the coelenterazine substrate (such as coelenterazine h for first generation BRET (BRET) or EnduRen for extended BRET (eBRET), energy is transferred to the acceptor if within 10 nm, resulting in acceptor light emission peaking at a characteristic wavelength. BRET (3-arrestin assays were carried out as described previously (See, H. B., Seeber, R. M., Kocan, M., Eidne, K. A. and Pfleger, K. D. (2011) ‘Application of G protein-coupled receptor-heteromer identification technology to monitor beta-arrestin recruitment to G protein-coupled receptor heteromers’, Assay Drug Dev Technol, 9(1), 21-30, 10.1089/adt.2010.0336). CXCR4/Rluc8 cDNA constructs were generated from plasmids containing the respective receptor cDNA tagged with Rluc kindly provided by Aron Chakera (Oxford University, United Kingdom). The β-arrestin 2/Venus cDNA construct was prepared previously from pCS2-Venus kindly provided by Atsushi Miyawaki (RIKEN Brain Science Institute, Wako-city, Japan). BRET technology in cells transiently expressing CXCR4/Rluc8 and β-arrestin2/Venus in the presence of 100 nM SDF-1 agonist was evaluated in the presence of the CXCR4 agonist SDF-1/CXCL12 and the i-bodies. HEK293FT cells were maintained at 37° C., 5% CO2 in Complete Media (Dulbecco's modified Eagle's medium containing 0.3 mg/mL glutamine, 100 IU/mL penicillin, and […] streptomycin; Gibco) supplemented with 10% fetal calf serum (FCS) and […] Geneticin (Gibco). Transfections were carried out 24 h after seeding using Genejuice (Novagen) according to manufacturer's instructions. Cells were harvested with 0.05% Trypsin-EDTA (Gibco). HEK293FT cells were transfected using FuGene6 (Promega). 5 μM coelenterazine h (Promega) in HBSS was used as the luciferase substrate solution. Cells were harvested 24 h post-transfection in HEPES-buffered phenol red-free Complete Medium containing 5% FCS and added to a poly-L-lysine-coated white 96-well plate (Nunc). Dose-response curves were generated using BRET, with medium in the plate being replaced with PBS containing […] coelenterazine h (Molecular Probes) and assays carried out immediately. For these assays, 48 h post-transfection, the plate was incubated at […], 5% CO2 for 2 h with […] EnduRen (Promega) to ensure substrate equilibrium was reached. All BRET measurements were taken at 37° C. using the VICTOR Light plate reader with Wallac 1420 software (PerkinElmer). Filtered light emissions were sequentially measured at 400-475 and 520-540 nm. The BRET signal was calculated by subtracting the ratio of 520-540 nm emission over 400-475 nm emission for a vehicle-treated cell sample from the same ratio for a second aliquot of the same cells treated with agonist (in this instance in the presence of SDF-1 or CXCL12) and i-body (ADCX-99, ADCX-272, ACDX-6, ACDX-306, ADCX-668) at various concentrations. Data are mean±S.E.M. of four independent experiments carried out in duplicate.
Binding of the i-bodies to CXCR4 were examined in a β-Arrestin BRET assay as described in See, Heng B et al (2011) Assay and Drug Development Technologies 9(1):21-30. The i-bodes were examined at ten concentrations with and without 100 nM SDF-1 with the addition of ‘vehicle’ and ‘SDF-1+vehicle’ controls in order to characterise if the i-bodies are agonist or antagonists of CXCR4 activity.
(In general: Bioluminescence resonance energy transfer reports proximity on the nanometre scale.)

In assay [3] the target is CCR5 positive lipoparticles (Homo sapiens, UniProt P51681). The assay can be described thus: Biacore SPR binding to CCR5 positive lipoparticles (off-target control). For orientation: SPR reads the build-up and loss of mass on a sensor chip optically.
Chain of CCR5 positive lipoparticles (P51681 whole entry): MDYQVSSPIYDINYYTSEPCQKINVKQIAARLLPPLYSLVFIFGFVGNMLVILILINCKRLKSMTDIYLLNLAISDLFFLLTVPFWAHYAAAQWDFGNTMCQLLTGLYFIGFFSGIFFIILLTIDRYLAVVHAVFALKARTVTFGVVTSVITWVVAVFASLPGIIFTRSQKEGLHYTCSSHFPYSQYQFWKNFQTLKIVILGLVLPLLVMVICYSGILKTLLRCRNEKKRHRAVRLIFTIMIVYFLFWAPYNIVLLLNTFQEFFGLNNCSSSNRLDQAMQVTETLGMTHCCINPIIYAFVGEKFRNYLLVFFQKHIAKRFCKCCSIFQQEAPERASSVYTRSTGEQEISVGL
The nature of assay [4]: Binding to null lipoparticles (off-target control). As for the experimental part: (FIGS. 2A-2C, 5A-5C, 11A-11D, 17A-17B) Kinetic binding analysis of selected i-bodies with immobilized CXCR4 lipoparticles were performed at 25° C. using Biacore T200 instrument (GE Healthcare, Uppsala, Sweden). Streptavidin immobilization was performed in 1×HBS-P+ running buffer (10 mM HEPES, 150 mM NaCl, 0.05% [v/v] Tween-20). Amine coupling kit (GE Healthcare) and the instructions therein were utilized for the attachment of Streptavidin (Sigma; diluted to 100 μg/mL in 10 mM sodium acetate buffer pH 4.5) in all four channels on the sensor chip surface simultaneously, resulting in >6,000 RU of Streptavidin being coupled (1 RU=1 pg protein/mm^2). All binding experiments involving lipoparticles were performed with 1×HBS/BSA (10 mM HEPES, 150 mM NaCl, 1 mg/mL BSA) as instrument running buffer. Biotinylated CXCR4 lipoparticles (Integral Molecular, Cat #LEV-101B; 3.6 U/mL as described in WO 2005/042695) were typically diluted 1 in 20 in the running buffer and immobilized onto a Streptavidin containing channel by injecting at […] for 1,800 sec resulting in captured response levels of greater than 2,500 RU. […] In order to determine binding kinetics, serial dilutions (three-fold) of i-bodies diluted in 1×HBS/BSA were injected over immobilized lipoparticles with the association and dissociation phases monitored for 60 sec and 600 sec, respectively. […]

Chain of CXCR4 (P61073 whole entry): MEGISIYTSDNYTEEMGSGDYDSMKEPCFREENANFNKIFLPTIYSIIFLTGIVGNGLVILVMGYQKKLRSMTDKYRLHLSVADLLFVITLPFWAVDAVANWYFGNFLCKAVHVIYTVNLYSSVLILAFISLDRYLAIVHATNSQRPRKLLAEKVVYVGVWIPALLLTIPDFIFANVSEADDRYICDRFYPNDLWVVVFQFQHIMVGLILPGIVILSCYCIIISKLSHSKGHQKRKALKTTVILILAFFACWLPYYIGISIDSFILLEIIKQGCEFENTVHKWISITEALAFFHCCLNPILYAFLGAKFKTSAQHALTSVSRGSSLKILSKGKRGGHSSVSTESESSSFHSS

B1: ADCX-99: CXCR4 binding i-body, SEQ ID NO: 11, parent of affinity matured binders (protein)
chain: LQVDIVPSQGEISVGESKFFLCQVAGSGSDIRISWFSPNGEKLTPNQQRISVVWNDDSSSTLTIYNANIDDAGIYKCVVYRTGGYRHRALVLGEATVNVKIFQ
modifications: ADCX-99 protein sequence
With B1, in assay [1], the CCR4 activity is given as 34%. The “IC50 (nM) in β-Arrestin BRET assay (Antagonist mode in the presence of 100 nM SDF-1)” value in assay [2] was “very weak effect; also recorded: No activity”. For the same molecule, the β-arrestin activity entry in assay [2] (various concentrations) is “some degree of inhibition”. The “binding to CCR5 positive lipoparticles” value in assay [3] is given as “did not bind; also recorded: very little binding”. Further, the “binding to null lipoparticles” value in assay [4] was “did not bind; also recorded: very little binding”.
